Experimental data reported in patent EP4792821A2 (Beijing Youcare Kechuang Pharmaceutical Technology Co., Ltd., dated 2026).
Where no end group is shown, it is not given here. The star is where a group is joined. Succinyl(4-O-cholesteryl) = CC(C)CCC[C@@H](C)[C@H]1CC[C@H]2[C@@H]3CC=C4C[C@@H](OC(=O)CCC(=O)*)CC[C@]4(C)[C@H]3CC[C@]12C

B1: Compound 34 (peptide)
peptide: Ac-FDEEVNKKIEQSLKINQSLEEIRKSEAAAKK(Succinyl(4-O-cholesteryl))-NH2
SMILES: CC[C@H](C)[C@H](NC(=O)[C@H](CCC(=O)O)NC(=O)[C@H](CCC(=O)O)NC(=O)[C@H](CC(C)C)NC(=O)[C@H](CO)NC(=O)[C@H](CCC(N)=O)NC(=O)[C@H](CC(N)=O)NC(=O)[C@@H](NC(=O)[C@H](CCCCN)NC(=O)[C@H](CC(C)C)NC(=O)[C@H](CO)NC(=O)[C@H](CCC(N)=O)NC(=O)[C@H](CCC(=O)O)NC(=O)[C@@H](NC(=O)[C@H](CCCCN)NC(=O)[C@H](CCCCN)NC(=O)[C@H](CC(N)=O)NC(=O)[C@@H](NC(=O)[C@H](CCC(=O)O)NC(=O)[C@H](CCC(=O)O)NC(=O)[C@H](CC(=O)O)NC(=O)[C@H](Cc1ccccc1)NC(C)=O)C(C)C)[C@@H](C)CC)[C@@H](C)CC)C(=O)N[C@@H](CCCNC(=N)N)C(=O)N[C@@H](CCCCN)C(=O)N[C@@H](CO)C(=O)N[C@@H](CCC(=O)O)C(=O)N[C@@H](C)C(=O)N[C@@H](C)C(=O)N[C@@H](C)C(=O)N[C@@H](CCCCN)C(=O)N[C@@H](CCCCNC(=O)CCC(=O)O[C@H]1CC[C@@]2(C)C(=CC[C@H]3[C@@H]4CC[C@H]([C@H](C)CCCC(C)C)[C@@]4(C)CC[C@@H]32)C1)C(N)=O
B2: Compound 35 (peptide)
peptide: Ac-SISQVNEKINEIQSLEEKSDKLLKSEAAAKK(Succinyl(4-O-cholesteryl))-NH2
SMILES: CC[C@H](C)[C@H](NC(=O)[C@H](CO)NC(C)=O)C(=O)N[C@@H](CO)C(=O)N[C@@H](CCC(N)=O)C(=O)N[C@H](C(=O)N[C@@H](CC(N)=O)C(=O)N[C@@H](CCC(=O)O)C(=O)N[C@@H](CCCCN)C(=O)N[C@H](C(=O)N[C@@H](CC(N)=O)C(=O)N[C@@H](CCC(=O)O)C(=O)N[C@H](C(=O)N[C@@H](CCC(N)=O)C(=O)N[C@@H](CO)C(=O)N[C@@H](CC(C)C)C(=O)N[C@@H](CCC(=O)O)C(=O)N[C@@H](CCC(=O)O)C(=O)N[C@@H](CCCCN)C(=O)N[C@@H](CO)C(=O)N[C@@H](CC(=O)O)C(=O)N[C@@H](CCCCN)C(=O)N[C@@H](CC(C)C)C(=O)N[C@@H](CC(C)C)C(=O)N[C@@H](CCCCN)C(=O)N[C@@H](CO)C(=O)N[C@@H](CCC(=O)O)C(=O)N[C@@H](C)C(=O)N[C@@H](C)C(=O)N[C@@H](C)C(=O)N[C@@H](CCCCN)C(=O)N[C@@H](CCCCNC(=O)CCC(=O)O[C@H]1CC[C@@]2(C)C(=CC[C@H]3[C@@H]4CC[C@H]([C@H](C)CCCC(C)C)[C@@]4(C)CC[C@@H]32)C1)C(N)=O)[C@@H](C)CC)[C@@H](C)CC)C(C)C
B3: Compound 36 (peptide)
peptide: Ac-VNKKIEEEKQSLKKQSDKIEESDENEAAAKK(Succinyl(4-O-cholesteryl))-NH2
SMILES: CC[C@H](C)[C@H](NC(=O)[C@H](CCCCN)NC(=O)[C@H](CC(=O)O)NC(=O)[C@H](CO)NC(=O)[C@H](CCC(N)=O)NC(=O)[C@H](CCCCN)NC(=O)[C@H](CCCCN)NC(=O)[C@H](CC(C)C)NC(=O)[C@H](CO)NC(=O)[C@H](CCC(N)=O)NC(=O)[C@H](CCCCN)NC(=O)[C@H](CCC(=O)O)NC(=O)[C@H](CCC(=O)O)NC(=O)[C@H](CCC(=O)O)NC(=O)[C@@H](NC(=O)[C@H](CCCCN)NC(=O)[C@H](CCCCN)NC(=O)[C@H](CC(N)=O)NC(=O)[C@@H](NC(C)=O)C(C)C)[C@@H](C)CC)C(=O)N[C@@H](CCC(=O)O)C(=O)N[C@@H](CCC(=O)O)C(=O)N[C@@H](CO)C(=O)N[C@@H](CC(=O)O)C(=O)N[C@@H](CCC(=O)O)C(=O)N[C@@H](CC(N)=O)C(=O)N[C@@H](CCC(=O)O)C(=O)N[C@@H](C)C(=O)N[C@@H](C)C(=O)N[C@@H](C)C(=O)N[C@@H](CCCCN)C(=O)N[C@@H](CCCCNC(=O)CCC(=O)O[C@H]1CC[C@@]2(C)C(=CC[C@H]3[C@@H]4CC[C@H]([C@H](C)CCCC(C)C)[C@@]4(C)CC[C@@H]32)C1)C(N)=O
B4: Compound 37 (peptide)
peptide: Ac-FDELVNKKIEKIEEVNKKSLKLLESEAAAKK(Succinyl(4-O-cholesteryl))-NH2
SMILES: CC[C@H](C)[C@H](NC(=O)[C@H](CCCCN)NC(=O)[C@H](CCCCN)NC(=O)[C@H](CC(N)=O)NC(=O)[C@@H](NC(=O)[C@H](CC(C)C)NC(=O)[C@H](CCC(=O)O)NC(=O)[C@H](CC(=O)O)NC(=O)[C@H](Cc1ccccc1)NC(C)=O)C(C)C)C(=O)N[C@@H](CCC(=O)O)C(=O)N[C@@H](CCCCN)C(=O)N[C@H](C(=O)N[C@@H](CCC(=O)O)C(=O)N[C@@H](CCC(=O)O)C(=O)N[C@H](C(=O)N[C@@H](CC(N)=O)C(=O)N[C@@H](CCCCN)C(=O)N[C@@H](CCCCN)C(=O)N[C@@H](CO)C(=O)N[C@@H](CC(C)C)C(=O)N[C@@H](CCCCN)C(=O)N[C@@H](CC(C)C)C(=O)N[C@@H](CC(C)C)C(=O)N[C@@H](CCC(=O)O)C(=O)N[C@@H](CO)C(=O)N[C@@H](CCC(=O)O)C(=O)N[C@@H](C)C(=O)N[C@@H](C)C(=O)N[C@@H](C)C(=O)N[C@@H](CCCCN)C(=O)N[C@@H](CCCCNC(=O)CCC(=O)O[C@H]1CC[C@@]2(C)C(=CC[C@H]3[C@@H]4CC[C@H]([C@H](C)CCCC(C)C)[C@@]4(C)CC[C@@H]32)C1)C(N)=O)C(C)C)[C@@H](C)CC
B5: Compound 39 (peptide)
peptide: Ac-WDEFDASISQNEKINQSLEEIRKSDELLHNNALEAAAKK(Succinyl(4-O-cholesteryl))-NH2
SMILES: CC[C@H](C)[C@H](NC(=O)[C@H](CO)NC(=O)[C@H](C)NC(=O)[C@H](CC(=O)O)NC(=O)[C@H](Cc1ccccc1)NC(=O)[C@H](CCC(=O)O)NC(=O)[C@H](CC(=O)O)NC(=O)[C@H](Cc1c[nH]c2ccccc12)NC(C)=O)C(=O)N[C@@H](CO)C(=O)N[C@@H](CCC(N)=O)C(=O)N[C@@H](CC(N)=O)C(=O)N[C@@H](CCC(=O)O)C(=O)N[C@@H](CCCCN)C(=O)N[C@H](C(=O)N[C@@H](CC(N)=O)C(=O)N[C@@H](CCC(N)=O)C(=O)N[C@@H](CO)C(=O)N[C@@H](CC(C)C)C(=O)N[C@@H](CCC(=O)O)C(=O)N[C@@H](CCC(=O)O)C(=O)N[C@H](C(=O)N[C@@H](CCCNC(=N)N)C(=O)N[C@@H](CCCCN)C(=O)N[C@@H](CO)C(=O)N[C@@H](CC(=O)O)C(=O)N[C@@H](CCC(=O)O)C(=O)N[C@@H](CC(C)C)C(=O)N[C@@H](CC(C)C)C(=O)N[C@@H](Cc1c[nH]cn1)C(=O)N[C@@H](CC(N)=O)C(=O)N[C@@H](CC(N)=O)C(=O)N[C@@H](C)C(=O)N[C@@H](CC(C)C)C(=O)N[C@@H](CCC(=O)O)C(=O)N[C@@H](C)C(=O)N[C@@H](C)C(=O)N[C@@H](C)C(=O)N[C@@H](CCCCN)C(=O)N[C@@H](CCCCNC(=O)CCC(=O)O[C@H]1CC[C@@]2(C)C(=CC[C@H]3[C@@H]4CC[C@H]([C@H](C)CCCC(C)C)[C@@]4(C)CC[C@@H]32)C1)C(N)=O)[C@@H](C)CC)[C@@H](C)CC

Biological target: F protein of RSV A long virus strain (Respiratory Syncytial Virus (RSV) A …, UniProt P12568 26-574)
Sequence (P12568 26-574): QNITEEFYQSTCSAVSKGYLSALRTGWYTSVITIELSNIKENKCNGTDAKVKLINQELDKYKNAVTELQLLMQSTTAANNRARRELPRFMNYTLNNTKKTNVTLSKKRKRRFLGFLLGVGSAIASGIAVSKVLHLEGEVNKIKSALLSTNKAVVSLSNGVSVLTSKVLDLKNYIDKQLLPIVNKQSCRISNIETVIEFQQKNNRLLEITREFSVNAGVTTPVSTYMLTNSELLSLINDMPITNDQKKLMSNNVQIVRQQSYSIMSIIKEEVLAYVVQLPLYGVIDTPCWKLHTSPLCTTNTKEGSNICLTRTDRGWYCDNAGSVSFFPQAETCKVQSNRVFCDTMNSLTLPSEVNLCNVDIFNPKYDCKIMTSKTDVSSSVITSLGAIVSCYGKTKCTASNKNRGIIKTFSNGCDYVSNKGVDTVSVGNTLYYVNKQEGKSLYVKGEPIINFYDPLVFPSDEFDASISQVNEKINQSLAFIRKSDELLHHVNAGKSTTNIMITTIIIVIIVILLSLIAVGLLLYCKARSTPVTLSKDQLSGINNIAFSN
Experiment: cell-based or functional assay

Row | Binder | IC50/nM, plaque reduction, RSV A long on HEp-2 cells (Table 2, Cell fusion inhibition activity) [nM]
1 | B1 | > 2000
2 | B2 | 5530
3 | B3 | 6820
4 | B4 | 5230
5 | B5 | 113
6 | Ac-FDASLLKIEEEKKKIEELLKLHNESDKKLEEV-NH2 [Compound 4] | > 8000
7 | Ac-FEVNRRRIEQSLEKSLESLEEEEHSDKKLHNELH-NH2 [Compound 46] | > 8000
8 | Ac-SLEQVNKINKKIDKIEESLKKIEESDKKSLEVNKKLEAAAKK-NH2 [Compound 47] | > 8000
9 | Ac-SLEQVNKINEKINKISQSLKKIEESDKKSDEVNAGLEAAAKK-NH2 [Compound 48] | > 8000
10 | Ac-SLEQVNKKIEQSLESLKKSDKINQSLEEVNKSDELLEAAAKK-NH2 [Compound 49] | > 8000
11 | Ac-WDEFDKKIEEVNKKIEESLKKIEESDKKLEEVNKKL-NH2 [Compound 5] | 1120
12 | SLEQVNKKIEQSLKFIEKSDKLLENGSGSGK (not fully specified; also: modifications not known) [Positive polypeptide 1] | 150
13 | Ac-IEQVNKKIEQSLKFIEKSDKLLENVNKGK-NH2 [Positive polypeptide 2] | > 300
14 | IEEVNKKIEESLKKIEESDKKLEEVNKKKEAAAKK (not fully specified; also: modifications not known) [Positive polypeptide 3] | > 300
15 | IEQVNKKIEQSLKFIEKSDKLLENVNKGKCEAAAKK (not fully specified; also: modifications not known) [Positive polypeptide 4] | 190
16 | LEQVNKKIEQSLKFIEKSDKLLENVNKGKCEAAAKK (not fully specified; also: modifications not known) [Positive polypeptide 5] | > 300
17 | VFPSDEFDASISQVNEKINQSLAAIRKSDELLHNV (not fully specified; also: modifications not known) [Positive polypeptide 6] | > 300
18 | FDASISQVNEKINQSLAFIRKSDELLHNVNAGKSTTEAAAKK (not fully specified; also: modifications not known) [Positive polypeptide 7] | > 300
